Assay results published in patent publication US20030092616A1, “STAT6 activation gene” (priority 2001, published 2003).

test system: STAT6; experiment: Screening of full-length cDNA clones for promotion of STAT6 activation (luciferase reporter N4×8-luc); format: cell-based; conditions: NIH3T3 cells cotransfected with N4×8-luc reporter and cDNA plasmid; 48 h culture, then mouse IL-4 0.5 ng/ml for 6 h
In short: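 NIH3T3 cells cotransfected with STAT6-responsive N4×8-luc reporter (100 ng) and full-length cDNA, cultured 48 h, then given mouse IL-4 at 0.5 ng/ml final for 6 h. Luciferase activity compared with reporter plus null-vector control.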

Molecule	Activity = (luciferase activity of the gene of each SEQ ID NO:)/(luciferase activity of pME18S-FL3)
69 (nucleic acid, listed as Homo sapiens, CDS (31)..(687)) AGTGTTTGGGTTTCTTCGCGGCTGCTCAAGATGAACCGACTCTTCGGGAAAGCGAAACCCAAGGCTCCGCCGCCCAGCCTGACTGACTGCATTGGCACGGTGGACAGTAGAGCAGAATCCATTGACAAGAAGATTTCTCGATTGGATGCTGAGCTAGTGAAGTATAAGGATCAGATCAAGAAGATGAGAGAGGGTCCTGCAAAGAATATGGTCAAGCAGAAAGCCTTGCGAGTTTTAAAGCAAAAGAGGATGTATGAGCAGCAGCGGGACAATCTTGCCCAACAGTCATTCAACATGGAACAAGCCAATTATACCATCCAGTCTTTGAAGGACACCAAGACCACGGTTGATGCTATGAAACTGGGAGTAAAGGAAATGAAGAAGGCATACAAGCAAGTGAAGATCGACCAGATTGAGGATTTACAAGACCAGCTAGAGGATATGATGGAAGATGCAAATGAAATCCAAGAAGCACTGAGTCGCAGTTATGGCACCCCAGAACTGGATGAAGATGATTTAGAAGCAGAGTTGGATGCACTAGGTGATGAGCTTCTGGCTGATGAAGACAGTTCTTATTTGGATGAGGCAGCATCTGCACCTGCAATTCCAGAAGGTGTTCCCACTGATACAAAAAACAAGGATGGAGTTCTGGTGGATGAATTTGGATTGCCACAGATCCCTGCTTCATAGATTTGCATCATTCAAGCATATCTTGTAAAACAAACACATATTATGGGACTAGGAAATATTTATCTTTCCAAATTTGCCATAACAGATTTAGGTTTCTTTCCTTTCTTTGAAGGAAAGTTTAATTACATTGCTCTTTTATTTTTTCCATTAAGAGACTCATTGCTTGGGAAATGCTTTCTTCGTACTAAAATTTGATTCCTTTTTTTCTTATGAAAAACGAACTCAGTTTAAAAGTATTTTTAGCTCGTATGACTTGTTTTCATTCATTAATAATAATTTGAAATAAAACTAAGGAAATGGAATCTTAAAAGTCTATGACAGTGTAACTCTACAGTCTCAAAATGACCTGATAAATTGATAAGACAAAGATGAGATTATTGGGGCTGTTCATATTATGATTCAGAATCATTTTCTATTGTGGTATTATAGGTTGGTTAAAGTGATGGCCTTTTTGATGGGTTTTGTTGTGTCTTGTGAACAAGTCGTTACTGTGTCCATTATTGGAATGGAATTATCACTACTGTATCATGAGTGGGTATTTTGATTCTATGGTTCCCTCAGTATTACATCTTGACTTGTAATCAATTATGAATATTTCTTGATATTTAATGTATAGGACATTTATTTATACTCAATAAATATTTTTCAAAAGG	11.7
293 (nucleic acid, listed as Homo sapiens, CDS (46)..(486)) GAGCATACACCGAGAGAGTGAGGAGCCAGACGACAAGCACACACTATGGCGCTGAAACGGATTAATAAGGAACTTAGTGATTTGGCCCGTGACCCTCCAGCACAATGTTCTGCAGGTCCAGTTGGGGATGATATGTTTCATTGGCAAGCCACAATTATGGGACCTAATGACAGCCCATATCAAGGCGGTGTATTCTTTTTGACAATTCATTTTCCTACAGACTACCCCTTCAAACCACCTAAGGTTGCATTTACAACAAGAATTTATCATCCAAATATTAACAGTAATGGCAGCATTTGTCTCGATATTCTAAGATCACAGTGGTCGCCTGCTTTAACAATTTCTAAAGTTCTTTTATCCATTTGTTCACTGCTATGTGATCCAAACCCAGATGACCCCCTAGTGCCAGAGATTGCACGGATCTATAAAACAGACAGAGATAAGTACAACAGAATATCTCGGGAATGGACTCAGAAGTATGCCATGTGATGCTACCTTAAAGTCAGAATAACCTGCATTATAGCTGGAATAAACTTTAAATTACTGTTCCTTTTTTGATTTTCTTATCCGGCTGCTCCCCTGATCAGACCTCATCTTTTTTAATTTTATTTTTTGTTTACCTCCCTCCATTCATTCACATGCTCATCTGAGAAGACTTAAGTTCTTCCAGCTTTGACAATAACTGCTTTTAGAAACTGTAAAGTAGTTACAAGAGAACAGTTGG	25.8
291 (nucleic acid, listed as Homo sapiens, CDS (16)..(456)) CGCCATCCCTGACCCATGGCGCTGAAGAGGATTCAGAAAGAATTGAGTGATCTACAGCGCGATCCACCTGCTCACTGTTCAGCTGGACCTGTGGGAGATGACTTGTTCCACTGGCAAGCCACTATTATGGGGCCTCCTGATAGCGCATATCAAGGTGGAGTCTTCTTTCTCACTGTACATTTTCCGACAGATTATCCTTTTAAACCACCAAAGATTGCTTTCACAACAAAAATTTACCATCCAAACATAAACAGTAATGGAAGTATTTGTCTCGATATTCTGAGGTCACAATGGTCACCAGCTCTGACTGTATCAAAAGTTTTATTGTCCATATGTTCTCTACTTTGTGATCCTAATCCAGATGACCCCTTAGTACCAGATATTGCACAAATCTATAAATCAGACAAAGAAAAATACAACAGACATGCAAGAGAATGGACTCAGAAATATGCAATGTAA	13.0
275 (nucleic acid, listed as Homo sapiens, CDS (14)..(598)) GCAGACCCCCATCATGGGCAGCCAGAGCTCCAAGGCTCCCCGGGGCGACGTGACCGCCGAGGAGGCAGCAGGCGCTTCCCCCGCGAAGGCCAACGGCCAGGAGAATGGCCACGTGAAAAGCAATGGAGACTTATCCCCCAAGGGTGAAGGGGAGTCGCCCCCTGTGAACGGAACAGATGAGGCAGCCGGGGCCACTGGCGATGCCATCGAGCCAGCACCCCCTAGCCAGGGTGCTGAGGCCAAGGGGGAGGTCCCCCCCAAGGAGACCCCCAAGAAGAAGAAGAAATTCTCTTTCAAGAAGCCTTTCAAATTGAGCGGCCTGTCCTTCAAGAGAAATCGGAAGGAGGGTGGGGGTGATTCTTCTGCCTCCTCACCCACAGAGGAAGAGCAGGAGCAGGGGGAGATCGGTGCCTGCAGCGACGAGGGCACTGCTCAGGAAGGGAAGGCCGCAGCCACCCCTGAGAGCCAGGAACCCCAGGCCAAGGGGGCAGAGGCTAGTGCAGCCTCAGAAGAAGAGGCAGGGCCCCAGGCTACAGAGCCATCCACTCCCTCGGGGCCGGAGAGTGGCCCTACACCAGCCAGCGCTGAGCAGAATGAGTAGCTAGGTAGGGGCAGGTGGGTGATCTCTAAGCTGCAAAAACTGTGCTGTCCTTGTGAGGTCACTGCCTGGACCTGGTGCCCTGGCTGCCTTCCTGTGCCCAGAAAGGAAGGGGCTATTGCCTCCTCCCAGCCACGTTCCCTTTCCTCCTCTCCCTCCTGTGGATTCTCCCATCAGCCATCTGGTTCTCCTCTTAAGGCCAGTTGAAGATGGTCCCTTACAGCTTCCCAAGTTAGGTTAGTGATGTGAAATGCTCCTGTCCCTGGCCCTACCTCCTTCCCTGTCCCCACCCCTGCATAAGGCAGTTGTTGGTTTTCTTCCCCAATTCTTTTCCAAGTAGGTTTTGTTTACCCTACTCCCCAAATCCCTGAGCCAGAAGTGGGGTGCTTATACTCCCAAACCTTGAGTGTCCAGCCTTCCCCTGTTGTTTTTAGTCTCTTGTGCTGTGCCTAGTGGCACCTGGGCTGGGGAGGACACTGCCCCGTCTAGGTTTTTATAAATGTCTTACTCAAGTTCAAACCTCCAGCCTGTGAATCAACTGTGTCTCTTTTTTGACTTGGTAAGCAAGTATTAGGCTTTGGGGTGGGGGGAGGTCTGTAATGTGAAACAACTTCTTGTCTTTTTTTCTCCCACTGTTGTAAATAACTTTTAATGGCCAAACCCCAGATTTGTACTTTTTTTTTTTTTCTAACTGCTAAAACCATTCTCTTCCACCTGGTTTTACTGTAACATTTGG	17.0
